Assay results from US20230357384A1 (NEXTCURE, published 2023).

Key:
[1] = biological target: T1, FLRT3 (antigen of the binning assay of Table 2) (Homo sapiens (Human), UniProt Q9NZU0 29-528, limits assumed); assay: antibody binning matrix (Table 2); competitor: 1H5
T1 construct: the whole entry for FLRT3 is named
T1 sequence: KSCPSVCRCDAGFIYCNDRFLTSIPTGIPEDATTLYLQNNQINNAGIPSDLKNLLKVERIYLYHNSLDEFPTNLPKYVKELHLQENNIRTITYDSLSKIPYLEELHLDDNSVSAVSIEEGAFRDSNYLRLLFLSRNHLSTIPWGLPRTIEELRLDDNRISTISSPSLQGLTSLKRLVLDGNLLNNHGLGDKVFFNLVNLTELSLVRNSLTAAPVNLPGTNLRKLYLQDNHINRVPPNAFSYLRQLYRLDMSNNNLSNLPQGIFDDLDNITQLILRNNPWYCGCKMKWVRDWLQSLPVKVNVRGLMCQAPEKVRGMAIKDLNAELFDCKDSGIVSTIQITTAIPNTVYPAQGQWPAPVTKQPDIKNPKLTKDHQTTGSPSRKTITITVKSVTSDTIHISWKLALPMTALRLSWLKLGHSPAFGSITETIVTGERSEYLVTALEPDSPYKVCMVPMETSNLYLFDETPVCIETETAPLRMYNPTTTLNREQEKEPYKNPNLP

[2] = biological target: T1, FLRT3 (antigen of the binning assay of …); assay: antibody binning matrix (Table 2); competitor: 2F7
[3] = biological target: T1, FLRT3 (antigen of the binning assay of …); assay: antibody binning matrix (Table 2); competitor: 5C2
[4] = biological target: T1, FLRT3 (antigen of the binning assay of …); assay: antibody binning matrix (Table 2); competitor: 14B7
[5] = biological target: T1, FLRT3 (antigen of the binning assay of …); assay: antibody binning matrix (Table 2); competitor: 14D3
[6] = biological target: T2, FLRT3-His monomeric fusion protein (Homo sapiens (Human), UniProt Q9NZU0 29-528); assay: kinetic affinity measurement with FLRT3-His monomer (Table 1)
T2 construct: also called FLRT3 monomer; not shown: His tag
T2 sequence: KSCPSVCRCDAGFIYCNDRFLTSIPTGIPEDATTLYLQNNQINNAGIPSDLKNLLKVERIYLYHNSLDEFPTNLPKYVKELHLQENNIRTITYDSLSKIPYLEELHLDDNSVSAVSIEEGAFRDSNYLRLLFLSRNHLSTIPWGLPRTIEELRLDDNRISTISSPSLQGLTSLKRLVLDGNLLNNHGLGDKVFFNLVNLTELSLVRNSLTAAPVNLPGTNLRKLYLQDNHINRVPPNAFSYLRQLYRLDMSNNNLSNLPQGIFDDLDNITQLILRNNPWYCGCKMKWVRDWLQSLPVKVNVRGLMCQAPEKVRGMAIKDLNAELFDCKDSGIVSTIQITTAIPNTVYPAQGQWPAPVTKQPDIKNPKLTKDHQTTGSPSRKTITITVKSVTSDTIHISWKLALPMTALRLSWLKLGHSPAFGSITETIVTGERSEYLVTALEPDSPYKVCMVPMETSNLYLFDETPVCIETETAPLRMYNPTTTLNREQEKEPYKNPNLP

[7] = biological target: T1, FLRT3 (antigen of the binning assay of …); assay: antibody binning matrix (Table 2); competitor: 15G11
human FLRT3 on cells [8] = biological target: T3, human FLRT3 on cells (human, UniProt Q9NZU0 29-649); assay: flow cytometry on A549 cells (endogenous hFLRT3), normalised MFI, non-linear fit
T3 construct: also called hFLRT3
T3 sequence: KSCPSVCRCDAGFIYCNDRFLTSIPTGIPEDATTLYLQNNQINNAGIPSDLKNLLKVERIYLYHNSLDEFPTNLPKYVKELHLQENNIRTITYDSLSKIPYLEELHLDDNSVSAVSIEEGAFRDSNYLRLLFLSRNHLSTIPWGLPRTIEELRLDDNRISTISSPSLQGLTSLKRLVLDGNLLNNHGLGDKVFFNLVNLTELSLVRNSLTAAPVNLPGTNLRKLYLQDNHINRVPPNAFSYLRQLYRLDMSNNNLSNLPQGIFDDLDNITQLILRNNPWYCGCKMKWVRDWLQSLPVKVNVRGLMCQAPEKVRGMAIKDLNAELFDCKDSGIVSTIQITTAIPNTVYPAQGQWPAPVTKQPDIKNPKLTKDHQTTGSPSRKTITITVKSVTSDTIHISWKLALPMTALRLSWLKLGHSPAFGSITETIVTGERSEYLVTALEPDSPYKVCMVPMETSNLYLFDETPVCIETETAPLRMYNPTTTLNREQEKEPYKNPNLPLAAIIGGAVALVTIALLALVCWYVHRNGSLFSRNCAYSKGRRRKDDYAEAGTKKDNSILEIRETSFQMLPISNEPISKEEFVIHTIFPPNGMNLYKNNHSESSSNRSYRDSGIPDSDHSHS
Method: (§1) Increasing concentrations of FLRT3 antibodies bound to A549 cells that express endogenous hFLRT3 (FIG. 19). Binding curves for the top three antibodies were performed (FIG. 20A). MFI values of each group were normalized within that group- i.e. largest value 100% and smallest value 0% (FIG. 20A). EC50 values were calculated based on non-linear regression fit (FIG. 20B).

human FLRT3 on cells [9] = biological target: T3, human FLRT3 on cells; assay: as above; remark: listed apart in the source
Method: as §1

human FLRT3 on cells [10] = biological target: T3, human FLRT3 on cells; assay: flow cytometry on 293T cells transfected with human FLRT3, normalised MFI, non-linear fit
Excerpt: (§2) MFI values of each group were normalized within that group- i.e. largest value 100% and smallest value 0%.

FLRT3-Fc = biological target: T4, FLRT3-Fc (Homo sapiens (Human), UniProt Q9NZU0 29-528, biotin label in Example 8 (site not stated)); assay: competition ELISA: FLRT3-Fc biotin binding to coated Unc5B-Fc with titrated antibody
T4 construct: also called FLRT3-Fc biotin; soluble FLRT3; not shown: Fc part
T4 sequence: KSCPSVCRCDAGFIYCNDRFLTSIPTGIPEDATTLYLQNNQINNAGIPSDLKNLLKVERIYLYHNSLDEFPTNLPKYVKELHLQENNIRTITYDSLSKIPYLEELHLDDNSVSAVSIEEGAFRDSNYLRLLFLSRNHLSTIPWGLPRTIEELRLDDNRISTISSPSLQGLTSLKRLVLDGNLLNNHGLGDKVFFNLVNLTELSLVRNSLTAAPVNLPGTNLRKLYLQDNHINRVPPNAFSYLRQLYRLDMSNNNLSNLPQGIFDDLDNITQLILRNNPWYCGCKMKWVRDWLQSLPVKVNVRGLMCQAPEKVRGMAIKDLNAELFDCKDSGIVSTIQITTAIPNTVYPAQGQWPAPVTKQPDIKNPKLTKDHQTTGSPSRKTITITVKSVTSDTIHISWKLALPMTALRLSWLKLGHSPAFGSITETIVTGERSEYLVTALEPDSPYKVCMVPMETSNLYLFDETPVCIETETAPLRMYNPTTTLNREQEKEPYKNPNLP
Method: The FLRT3 antibodies were tested for their ability to block FLRT3-Unc5B interaction in ELISA assays (FIG. 14A). The binding of FLRT3-Fc biotin to Unc5B-Fc was confirmed in the absence of blocking mAbs (FIG. 14B).

human FLRT3 on cells [11] = biological target: T3, human FLRT3 on cells; assay: flow cytometry on 293T cells transfected with human FLRT3, normalised MFI, non-linear fit; Exp 1
Excerpt: as §2

human FLRT3 on cells [12] = biological target: T3, human FLRT3 on cells; assay: flow cytometry on 293T cells transfected with human FLRT3, normalised MFI, non-linear fit; Exp 2
Excerpt: as §2

[13] = biological target: T1, FLRT3 (antigen of the binning assay of …); assay: antibody binning matrix (Table 2); row '1X Kinetic' (no first antibody), column antibody taken as binder

binning response (no name or unit printed) [1]: 0.671
binning response (no name or unit printed) [2]: 0.771
binning response (no name or unit printed) [3]: 0.0014
binning response (no name or unit printed) [4]: 0.0294
binning response (no name or unit printed) [5]: 0.621
Kd [6]: 0.349 nM
koff [6]: 0.000138 s⁻¹
kon [6]: 436000 M⁻¹ s⁻¹
binning response (no name or unit printed) [7]: 1.07
EC50 (human FLRT3 on cells [8]): < 1 nM
EC50 (human FLRT3 on cells [9]): 0.29 nM
EC50 (human FLRT3 on cells [10]): < 1.5 nM
IC50 (read off the curve) (FLRT3-Fc): ~2 µg/mL
EC50 (human FLRT3 on cells [11]): 1.41 nM
EC50 (human FLRT3 on cells [12]): 1.35 nM
binning response (no name or unit printed) [13]: 1.73
B1: 14B7 (antibody, V domains shown)
VH: QVQLQQSGPELVKPGASVNISCKASGYAFGNSWMNWVKQRPGKGLEWIGWIYPGDGNANYNGKFKGKATLTADKSSSTAYMQLSSLTSEDSAVYFCARALYDYDGWFAYWGQGTLVTVSA
VL: DIQMNQSPSSLSASLGDTITIACRASQNIDIWLSWYQQKPGSIPKLLIYKASNLHTGVPSRFSGSGSGTDFTLTISSLQPEDIATYYCLQGQSFPFTFGSGTKLEIK
notes: Variable domains only; also called FLRT3 mAb 14B7; antibody 14B7
